B1: RAP-2 deletion fragment containing amino acids 1-264 (other)
chain: MNRHLWKSQLCEMVQPSGGPAADQDVLGEESPLGKPAMLHLPSEQGAPETLQRCLEENQELRDAIRQSNQILRERCEELLHFQASQREEKEFLMCKFQEARKLVERLGLEKLDLKRQKEQALREVEHLKRCQQQMAEDKASVKAQVTSLLGELQESQSRLEAATKECQALEGRARAASEQARQLESEREALQQQHSVQVDQLRMQGQSVEAALRMERQAASEEKRKLAQLQVAYHQLFQEYDNHIKSSVVGSERKRGMQLEDLK
B2: MORT-1 (other, UniProt Q13158 1-208, looked up)
chain: MDPFLVLLHSVSSSLSSSELTELKFLCLGRVGKRKLERVQSGLDLFSMLLEQNDLEPGHTELLRELLASLRRHDLLRRVDDFEAGAAAGAAPGEEDLCAAFNVICDNVGKDWRRLARQLKVSDTKIDSIEDRYPRNLTERVRESLRIWKNTEKENATVAHLVGALRSCQMNLVADLVQEVQQARDLQNRSGAMSPMSWNSDASTSEAS
notes: also called FADD
B3: p55-R (p55 TNF receptor) (receptor, UniProt P19438 235-455, looked up)
chain: RYQRWKSKLYSIVCGKSTPEKEGELEGTTTKPLAPNPSFSPTPGFTPTLGFSPVPSSTFTSSSTYTPGDCPNFAAPRREVAPPYQGADPILATALASDPIPNPLQKWEDSAHKPQSLDTDDPATLYAVVENVPPLRWKEFVRRLGLSDHEIDRLELQNGRCLREAQYSMLATWRRRTPRREATLELLGRVLRDMDLLGCLEDIEEALCGPAALPPAPSLLR
notes: also called TNFR-I
B4: clone #84 (other, UniProt Q99675 1-332, looked up)
chain: MAAVFLVTLYEYSPLFYIAVVFTCFIVTTGLVLGWFGWDVPVILRNSEETQFSTRVFKKQMRQVKNPFGLEITNPSSASITTGITLTTDCLEDSLLTCYWGCSVQKLYEALQKHVYCFRISTPQALEDALYSEYLYQEQYFIKKDSKEEIYCQLPRDTKIEDFGTVPRSRYPLVALLTLADEDDREIYDIISMVSVIHIPDRTYKLSCRILYQYLLLAQGQFHDLKQLFMSANNNFTPSNNSSSEEKNTDRSLLEKVGLSESEVEPSEENSKDCVVCQNGTVNWVLLPCRHTCLCDGCVKYFQQCPMCRQFVQESFALCSQKEQDKDKPKTL
notes: Isolated from the B-cell cDNA library with full-length RAP-2 as bait; The whole CGR19 entry is named; also called CGR19; Cell Growth Regulatory protein CGR19
B5: RAP-2 deletion fragment containing amino acids 218-416 (other)
chain: QAASEEKRKLAQLQVAYHQLFQEYDNHIKSSVVGSERKRGMQLEDLKQQLQQAEEALVAKQEVIDKLKEEAEQHKIVMETVPVLKAQADIYKADFQAERQAREKLAEKKELLQEQLEQLQREYSKLKASCQESARIEDMRKRHVEVSQAPLPPAPAYLSSPLALPSQRRSPPEEPPDFCCPKCQYQAPDMDTLQIHVME
B6: p75-R (p75 TNF receptor) (receptor, UniProt P20333 287-461, looked up)
chain: VKKKPLCLQREAKVPHLPADKARGTQGPEQQHLLITAPSSSSSSLESSASALDRRAPTRNQPQAPGVEASGAGEARASTGSSDSSPGGHGTQVNVTCIVNVCSSSDHSSQCSSQASSTMGDTDSSPSESPKDEQVPFSKEECAFRSQLETPETLLGSTEEKPLPLGVPDAGMKPS
B7: TRADD (other, UniProt Q15628 1-312, looked up)
chain: MAAGQNGHEEWVGSAYLFVESSLDKVVLSDAYAHPQQKVAVYRALQAALAESGGSPDVLQMLKIHRSDPQLIVQLRFCGRQPCGRFLRAYREGALRAALQRSLAAALAQHSVPLQLELRAGAERLDALLADEERCLSCILAQQPDRLRDEELAELEDALRNLKCGSGARGGDGEVASAPLQPPVPSLSEVKPPPPPPPAQTFLFQGQPVVNRPLSLKDQQTFARSVGLKWRKVGRSLQRGCRALRDPALDSLAYEYEREGLYEQAFQLLRRFVQAEGRRATLQRLVEALEENELTSLAEDLLGLTDPNGGLA
B8: RAP-2 deletion fragment spanning amino acids 95-309 (other)
chain: CKFQEARKLVERLGLEKLDLKRQKEQALREVEHLKRCQQQMAEDKASVKAQVTSLLGELQESQSRLEAATKECQALEGRARAASEQARQLESEREALQQQHSVQVDQLRMQGQSVEAALRMERQAASEEKRKLAQLQVAYHQLFQEYDNHIKSSVVGSERKRGMQLEDLKQQLQQAEEALVAKQEVIDKLKEEAEQHKIVMETVPVLKAQADIYK

Tests used:
[1] = target: T1, RAP-2 (RIP-associated protein-2), full-length (human, UniProt Q9Y6K9 1-419); assay: deletion analysis, self-association of RAP-2
T1 construct: Full-length RAP-2; The RIP screen first yielded a partial clone of about 1.5 Kb; also called 303; RAP-303

clone #84 = target: B4; assay: yeast two-hybrid test
[2] = target: T1, RAP-2 (RIP-associated protein-2), …; assay: binding assay tests (two-hybrid)
NIK = NIK (UniProt Q99558 1-947); assay: yeast two-hybrid test
Sequence of NIK (Q99558 whole entry): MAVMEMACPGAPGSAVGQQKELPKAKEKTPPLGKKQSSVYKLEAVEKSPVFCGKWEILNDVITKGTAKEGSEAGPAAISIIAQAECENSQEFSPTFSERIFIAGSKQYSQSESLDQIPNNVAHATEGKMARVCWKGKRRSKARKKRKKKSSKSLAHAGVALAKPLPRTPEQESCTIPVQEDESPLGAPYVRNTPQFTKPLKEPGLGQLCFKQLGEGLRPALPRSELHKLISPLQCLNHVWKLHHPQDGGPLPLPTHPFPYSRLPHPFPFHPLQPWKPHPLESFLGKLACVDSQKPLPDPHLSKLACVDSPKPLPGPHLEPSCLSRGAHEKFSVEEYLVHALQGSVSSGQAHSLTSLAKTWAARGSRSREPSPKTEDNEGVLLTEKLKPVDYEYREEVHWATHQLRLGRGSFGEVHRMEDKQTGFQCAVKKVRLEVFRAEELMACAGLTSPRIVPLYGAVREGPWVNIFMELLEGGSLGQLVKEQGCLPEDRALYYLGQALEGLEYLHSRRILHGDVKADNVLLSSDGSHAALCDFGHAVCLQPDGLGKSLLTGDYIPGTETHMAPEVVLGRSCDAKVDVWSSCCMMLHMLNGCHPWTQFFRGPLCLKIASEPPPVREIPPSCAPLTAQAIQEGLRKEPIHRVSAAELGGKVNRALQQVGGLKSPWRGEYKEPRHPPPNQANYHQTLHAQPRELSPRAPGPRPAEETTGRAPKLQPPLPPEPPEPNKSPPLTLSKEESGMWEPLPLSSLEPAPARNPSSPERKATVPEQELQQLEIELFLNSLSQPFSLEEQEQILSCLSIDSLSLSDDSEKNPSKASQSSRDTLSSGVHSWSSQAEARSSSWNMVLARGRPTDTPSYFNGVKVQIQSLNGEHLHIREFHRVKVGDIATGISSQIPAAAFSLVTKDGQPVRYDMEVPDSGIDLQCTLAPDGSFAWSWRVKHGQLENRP

[3] = target: T2, TIP60 (histone acetyltransferase) (UniProt Q92993 1-513, limits assumed); assay: yeast two-hybrid test
T2 sequence (Q92993 whole entry): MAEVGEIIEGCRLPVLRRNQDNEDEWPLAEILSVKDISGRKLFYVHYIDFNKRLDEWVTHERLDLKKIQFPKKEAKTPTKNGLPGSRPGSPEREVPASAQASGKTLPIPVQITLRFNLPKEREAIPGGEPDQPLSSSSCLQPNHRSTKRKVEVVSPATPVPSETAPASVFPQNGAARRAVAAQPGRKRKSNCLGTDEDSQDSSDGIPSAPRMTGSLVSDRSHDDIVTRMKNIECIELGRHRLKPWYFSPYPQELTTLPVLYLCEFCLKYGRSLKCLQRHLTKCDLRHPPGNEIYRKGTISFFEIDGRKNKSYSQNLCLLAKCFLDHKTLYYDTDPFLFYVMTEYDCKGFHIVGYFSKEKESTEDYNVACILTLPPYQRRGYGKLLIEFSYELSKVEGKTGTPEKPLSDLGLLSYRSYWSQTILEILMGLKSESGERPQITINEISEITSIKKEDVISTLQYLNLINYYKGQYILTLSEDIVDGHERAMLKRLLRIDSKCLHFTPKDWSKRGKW

TRAF2 = target: T3, TRAF2 (UniProt Q12933 1-501, limits assumed); assay: yeast two-hybrid test
T3 sequence (looked up): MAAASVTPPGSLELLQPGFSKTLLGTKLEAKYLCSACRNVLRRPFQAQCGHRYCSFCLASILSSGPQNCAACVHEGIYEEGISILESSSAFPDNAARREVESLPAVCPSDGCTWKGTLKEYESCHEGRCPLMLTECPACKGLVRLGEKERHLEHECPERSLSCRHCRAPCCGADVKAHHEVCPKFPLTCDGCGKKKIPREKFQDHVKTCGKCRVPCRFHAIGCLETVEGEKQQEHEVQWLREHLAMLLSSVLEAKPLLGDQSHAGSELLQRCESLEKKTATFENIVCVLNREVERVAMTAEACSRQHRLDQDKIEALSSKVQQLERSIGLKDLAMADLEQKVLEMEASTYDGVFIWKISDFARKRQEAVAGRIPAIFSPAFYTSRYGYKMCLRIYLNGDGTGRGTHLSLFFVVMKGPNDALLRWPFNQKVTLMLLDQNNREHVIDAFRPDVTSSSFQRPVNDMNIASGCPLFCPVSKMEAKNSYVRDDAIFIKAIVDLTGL

[4] = target: T4, RIP (receptor interacting protein) (human, UniProt Q13546 1-671); assay: yeast two-hybrid test
T4 construct: mature; Full-length RIP was the two-hybrid bait; In co-immunoprecipitation it was pulled down with anti-FLAG mAbs (FLAG tag implied); also called RIP protein
T4 sequence (looked up): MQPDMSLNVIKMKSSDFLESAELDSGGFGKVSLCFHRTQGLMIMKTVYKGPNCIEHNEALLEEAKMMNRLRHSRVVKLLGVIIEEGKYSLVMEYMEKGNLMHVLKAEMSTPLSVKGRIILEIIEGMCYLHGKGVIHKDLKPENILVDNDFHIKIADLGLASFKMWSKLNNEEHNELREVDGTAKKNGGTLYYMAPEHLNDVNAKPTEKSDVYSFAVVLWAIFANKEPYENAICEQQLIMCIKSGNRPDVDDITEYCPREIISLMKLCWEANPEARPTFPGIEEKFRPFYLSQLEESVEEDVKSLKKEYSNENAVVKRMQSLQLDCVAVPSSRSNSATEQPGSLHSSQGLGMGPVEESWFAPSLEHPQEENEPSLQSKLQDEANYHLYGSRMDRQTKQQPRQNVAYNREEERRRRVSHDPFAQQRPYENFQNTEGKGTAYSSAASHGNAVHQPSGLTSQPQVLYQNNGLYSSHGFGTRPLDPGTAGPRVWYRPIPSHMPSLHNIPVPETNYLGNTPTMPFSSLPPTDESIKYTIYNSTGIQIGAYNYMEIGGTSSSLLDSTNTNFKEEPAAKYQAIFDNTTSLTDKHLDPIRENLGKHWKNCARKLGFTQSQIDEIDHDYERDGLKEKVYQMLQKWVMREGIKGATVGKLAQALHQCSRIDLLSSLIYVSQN

[5] = target: T2, TIP60 (histone acetyltransferase); assay: deletion analysis of RAP-2

B1
binding result [1]: binds

B2
binding result (clone #84): no binding | binding result [2]: no binding

B3
binding result [2]: no binding

B4
binding result (NIK): no binding | binding result [3]: no binding | binding result (TRAF2): no binding | binding result [4]: no binding

B5
binding result [1]: binds

B6
binding result [2]: no binding

B7
binding result (clone #84): no binding | binding result [2]: no binding

B8
binding result [5]: no binding
